According to patent US20230312646A1 (published 2023):

How the values were obtained:
[1] = target: P47 (P32 with proline replaced by octahydroindole-2-carboxylic acid, Oic); experiment: ITC, 25 C
[2] = target: P50 (hexapeptide with Oic and a C-terminal 3,4-dichlorinated phenylalanine); experiment: ITC, 25 C

B1: Pseudomonas aeruginosa sliding clamp (other)
chain: MHFTIQREALLKPLQLVAGVVERRQTLPVLSNVLLVVEGQQLSLTGTDLEVELVGRVVLEDAAEPGEITVPARKLMDICKSLPNDVLIDIRVEEQKLLVKAGRSRFTLSTLPANDFPTVEEGPGSLNFSIAQSKLRRLIDRTSFAMAQQDVRYYLNGMLLEVNGGTLRSVATDGHRLAMCSLDAQIPSQDRHQVIVPRKGILELARLLTEQDGEVGIVLGQHHIRATTGEFTFTSKLVDGKFPDYERVLPRGGDKLVVGDRQQLREAFSRTAILSNEKYRGIRLQLSNGLLKIQANNPEQEEAEEEVQVEYNGGNLEIGFNVSYLLDVLGVIGTEQVRFILSDSNSSALVHEADNDDSAYVVMPMRL
notes: also called ^PaSC; P. aeruginosa
With B1 the Kd [1] was 0.201 µM and the Kd [2] was 0.02 µM.
